Values quoted from earlier work, collected in article PMC5808296.
Where two headings read alike, the source gives them in different places.

How the values were obtained:
[1] = molecular target: Aβ42 Aβ1-42 (Mus musculus) (UniProt P12023)
[2] = molecular target: Aβ42 Aβ1-42 (Mus musculus) (UniProt P12023); remark: listed apart in the source

Substance	Kd [1] [pM]	Kd [2] [pM]
C-FRHMTEQ-C peptide	545	
C-IPLPFYN-C peptide		220
